Data on 1 molecule can be found in paper PMC4131202 (2013).

The target of this assay is actin filaments (UniProt P68133). Briefly: pelleting assay.

B1: End4p TLD (protein)
chain: LLNAPGENIEELVDNQLAETAQAIQQAILRLQNIAAKPKDDSLSPSELQVHDSLLSASIAITEAIARLIKAATASQAEIVAQGRGSSSRGAFYKKHNRWTEGLISAAKAVARATTTLIETADGVVNGTSSFEHLIVACNGVSAATAQLVAASRVKANFASKVQDHLEDAAKAVTEACKALVRQVESVALKAKEVQHEDFSSLGVHEYRRKEIEQQVQILKLENDLVAARRRLFDMRKTSYHVA
By Kd is commonly meant the concentration at which binding is half-saturated. A high value points to a looser complex. Consider B1, for which the dissociation constant Kd was approximately 3000 nM.
